# In publication PMC2958111:
# Molecular target: VEGF receptor 2 (UniProt P35968)
# Experiment: ELISA; VEGFR1 or VEGFR2 (200 ng/well) covalently attached with ethyl-carbodiimide to an amino-acid-coated 96-well plate; VEGF-A (200 ng/ml) applied alone or mixed with heparin, HS or porcine ocular fluid, 4°C overnight; washed with ice-cold PBS; bound VEGF-A measured with components of a human VEGF ELISA kit; values relative to controls (%)
# Chain of UniProt P35968 (P35968 20-764): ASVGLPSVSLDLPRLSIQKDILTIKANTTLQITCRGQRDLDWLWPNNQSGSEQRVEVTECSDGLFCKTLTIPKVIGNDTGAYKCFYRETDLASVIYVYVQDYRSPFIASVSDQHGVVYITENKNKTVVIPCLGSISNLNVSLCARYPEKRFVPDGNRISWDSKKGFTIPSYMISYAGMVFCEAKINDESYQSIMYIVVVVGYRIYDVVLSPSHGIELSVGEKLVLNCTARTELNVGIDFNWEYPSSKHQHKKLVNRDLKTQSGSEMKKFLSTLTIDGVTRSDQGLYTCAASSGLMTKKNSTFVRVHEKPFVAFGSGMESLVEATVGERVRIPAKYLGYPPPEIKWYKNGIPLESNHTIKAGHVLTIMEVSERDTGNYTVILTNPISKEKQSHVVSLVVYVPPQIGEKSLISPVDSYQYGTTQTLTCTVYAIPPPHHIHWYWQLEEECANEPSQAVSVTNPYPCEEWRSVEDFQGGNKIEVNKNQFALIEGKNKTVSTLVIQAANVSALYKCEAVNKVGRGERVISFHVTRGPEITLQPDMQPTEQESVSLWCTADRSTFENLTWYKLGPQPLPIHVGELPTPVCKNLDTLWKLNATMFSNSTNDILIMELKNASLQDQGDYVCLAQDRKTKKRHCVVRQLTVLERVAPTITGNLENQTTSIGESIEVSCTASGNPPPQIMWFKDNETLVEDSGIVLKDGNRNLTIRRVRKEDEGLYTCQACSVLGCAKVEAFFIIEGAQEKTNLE
"percent reduction of binding with 1,000 µg/ml soluble heparin [%]","percent inhibition of binding by 1,000 µg/ml of HS from bovine kidney [%]",percent inhibition of binding by porcine ocular fluid (63.2 µg/ml of HS) [%],Substance
9.4,–,–,"vascular endothelial growth factor-A, VEGF121 isoform (ligand)"
59.8,88.1,85.7,"vascular endothelial growth factor-A, VEGF165 isoform (ligand)"
